Results from patent publication US11951131B2, “Anti-SLAMF7 chimeric antigen receptors” (The United States of America, as represented by the …, priority 2018, dated 2024).

Assays:
Type in all cases: cell-based, human
[1] = tested on: SLAMF7-K562; test: IFN-gamma ELISA, CAR T cells cultured overnight with SLAMF7-K562 target cells
Text: (§1) MM.1S is a SLAMF7^+ multiple myeloma cell line that was obtained from American Type Culture Collection (ATCC). A549 is a BCMA-negative lung cancer cell line (ATCC). TC71 is a BCMA-negative sarcoma cell line. CCRF-CEM, 293T, and A549 are SLAMF7-negative cell lines (ATCC). COL0207, HepG2, U251, Panc10.05, and TC71 are […] that were kind gifts from Dr. Steven Rosenberg, National Cancer Institute. SLAMF7-K562 are K562 cells (ATCC) which were transduced with the gene for full-length SLAMF7. SLAMF7-RPMI are RPMI8226 cells (ATCC) which were transduced with the gene for full-length SLAMF7. NGFR-K562 are K562 cells which were transduced with the gene for low-affinity nerve growth factor (Kochenderfer et al., J. Immunother., 32(7): 689-702 (2009)). All of the human samples mentioned were obtained from patients enrolled in IRB-approved clinical trials at the National Cancer Institute.
(§2) One-hundred thousand SLAMF7^+ or SLAMF7-negative target cells were combined with 100,000 CAR-transduced T cells in duplicate wells of a 96 well round bottom plate in 200 µL of AIM V™ medium (Invitrogen) plus 5% human serum. The plates were incubated at 37° C. for 18-20 hours. Following the incubation, ELISAs (enzyme-linked immunosorbent assays) for IFNγ were performed by using standard methods.
(§3) The T cells columns indicate whether T cells were transduced with Luc90-CD828Z, Luc63-CD828Z, or were untransduced. The % CAR^+ in Table B-1 was determined by staining the T cells with Protein L. Except for the % CAR^+ column, all values are pg/mL of IFN-gamma. T cells that were either untransduced or transduced with one of the indicated CARs were cultured with target cells overnight and a standard IFN-gamma ELISA was performed on the culture supernatant.
(§4) All values are pg/mL of IFN-gamma. T cells that were either untransduced or transduced with one of the indicated CARs were cultured with target cells overnight, and a standard IFN-gamma ELISA was performed on the culture supernatant.

[2] = tested on: CCRF-CEM; test: IFN-gamma ELISA, CAR T cells with CCRF-CEM target cells; settings: Table C
Text: as §1, §2, §4

[3] = tested on: T cells only; test: IFN-gamma ELISA, T cells only (no target cells)
Protocol: as §2, §3, §4
(§5) The values in the cells are pg/mL of IFN-gamma. T cells that were either untransduced or transduced with one of the indicated CARs were cultured with target cells overnight, and a standard IFN-gamma ELISA was performed on the culture supernatant. The concentrations of 0, 50, or 200 ng/mL at the top of each column indicates the concentration of soluble SLAMF7 added to all T cell plus target cell overnight cultures in that column. The soluble SLAMF7 was added at the beginning of the overnight culture.

[4] = tested on: H929; test: IFN-gamma ELISA, CAR T cells with H929 target cells; settings: Table C
Protocol: as §2, §4

[5] = tested on: MM.1S; test: IFN-gamma ELISA, CAR T cells with MM.1S target cells; settings: Table C
Text: as §1, §2, §4

[6] = tested on: SLAMF7-RPMI; test: IFN-gamma ELISA, CAR T cells cultured overnight with SLAMF7-RPMI target cells
Text: as §1, §2, §3, §4, §5

[7] = tested on: SLAMF7^+ target cells; test: IFN-gamma ELISA and functional assays; settings: 4-1BB-containing CAR compared to Luc90-CD828Z (Table C)
Protocol: as §2
CAR-expressing T cells cultured alone produced very low levels of IFNγ. IFNγ production of T cells expressing a CAR with a 4-1BB moiety, Luc90-CD8BBZ, was compared to IFNγ production of T cells expressing Luc90-CD828Z (Table C). […] Low levels of soluble SLAMF7 are found in the serum of some MM patients (see Tai, et al., Blood, 112(4): 1329-1337 (2008)). IFNγ ELISA assays were conducted to determine if adding SLAMF7 to cultures of anti-SLAMF7 CAR T cells plus target cells could block IFNγ release by the CAR T cells (Table D). IFNγ release by the CART cells was used as a measure recognition of the SLAMF7^+ target cells by the CAR T cells. The concentrations of soluble SLAMF7 added to the cultures were similar to those found in the blood of patients. Blocking of SLAMF7^+ target cell recognition by the soluble SLAMF7 was not observed. Also, activation of the anti-SLAMF7 CAR T cells by the soluble SLAMF7 was not observed.

[8] = tested on: NGFR-K562; test: IFN-gamma ELISA, CAR T cells with NGFR-K562 target cells
Text: as §1, §2, §3, §4, §5

[9] = tested on: A549; test: IFN-gamma ELISA, CAR T cells with A549 target cells; settings: Table B-2; SLAMF7-negative
Text: as §1
(§6) One-hundred thousand SLAMF7^+ or SLAMF7-negative target cells were combined with 100,000 CAR-transduced T cells in duplicate wells of a 96 well round bottom plate in 200 µL of AIM V™ medium (Invitrogen) plus 5% human serum. […]
(§7) The T cells columns indicate whether T cells were transduced with Luc90-CD828Z, Luc63-CD828Z, or were untransduced. The % CAR^+ in Table B-1 was determined by staining the T cells with Protein L. Except for the % CAR^+ column, all values are pg/mL of IFN-gamma. […]

[10] = tested on: U251; test: IFN-gamma ELISA, CAR T cells with U251 target cells; settings: Table B-2
Text: as §1, §6, §7

[11] = tested on: HepG2; test: IFN-gamma ELISA, CAR T cells with HepG2 target cells; settings: Table B-1
Text: as §1, §6, §7

[12] = tested on: COLO 205; test: IFN-gamma ELISA, CAR T cells with COLO 205 target cells; settings: Table B-1
Text: as §1, §6, §7

[13] = tested on: TC71; test: IFN-gamma ELISA, CAR T cells with TC71 target cells; settings: Table B-2
Text: as §1, §6, §7

[14] = tested on: Panc 10.05; test: IFN-gamma ELISA, CAR T cells with Panc 10.05 target cells; settings: Table B-2
Text: as §1, §6, §7

[15] = tested on: 293T; test: IFN-gamma ELISA, CAR T cells with 293T target cells; settings: Table B-1; SLAMF7-negative cell line
Text: as §1, §6, §7

[16] = Table D, soluble SLAMF7 added 0 ng/ml
[17] = Table D, soluble SLAMF7 added 50 ng/ml
[18] = Table D, soluble SLAMF7 added 200 ng/ml

Luc90-CD8BBZ: anti-SLAMF7 CAR (SEQ ID NO: 29): Luc90-CD828Z with the CD28 moiety replaced with a 4-1BB moiety
IFN-gamma, target cells SLAMF7-K562 ([1]; Table C): 16697 pg/mL
IFN-gamma, target cells CCRF-CEM [2]: 278 pg/mL
IFN-gamma, T cells only ([3]; Table C): 531 pg/mL
IFN-gamma, target cells H929 [4]: 856 pg/mL
IFN-gamma, target cells MM.1S [5]: 5101 pg/mL
IFN-gamma, target cells SLAMF7-RPMI8226 ([6]; Table C, overnight culture): 19713 pg/mL
background cytokine release [7]: Generally higher background cytokine release
IFN-gamma, target cells NGFR-K562 ([8]; Table C): 434 pg/mL

B1: Luc63-CD828Z: anti-SLAMF7 CAR (SEQ ID NO: 28): identical to Luc90-CD828Z except scFv from humanized Luc63 antibody (protein)
chain: MALPVTALLLPLALLLHAARPDIQMTQSPSSLSASVGDRVTITCKASQDVGIAVAWYQQKPGKVPKLLIYWASTRHTGVPDRFSGSGSGTDFTLTISSLQPEDVATYYCQQYSSYPYTFGQGTKVEIKGSTSGSGKPGSGEGSTKGEVQLVESGGGLVQPGGSLRLSCAASGFDFSRYWMSWVRQAPGKGLEWIGEINPDSSTINYAPSLKDKFIISRDNAKNSLYLQMNSLRAEDTAVYYCARPDGNYWYFDVWGQGTLVTVSSFVPVFLPAKPTTTPAPRPPTPAPTIASQPLSLRPEACRPAAGGAVHTRGLDFACDIYIWAPLAGTCGVLLLSLVITLYCNHRNRSKRSRLLHSDYMNMTPRRPGPTRKHYQPYAPPRDFAAYRSRVKFSRSADAPAYQQGQNQLYNELNLGRREEYDVLDKRRGRDPEMGGKPRRKNPQEGLYNELQKDKMAEAYSEIGMKGERRRGKGHDGLYQGLSTATKDTYDALHMQALPPR
IFN-gamma, target cells A549 [9]: 76 pg/mL
IFN-gamma, target cells SLAMF7-K562 ([1]; Table B-1, overnight culture): 7106 pg/mL
IFN-gamma, target cells SLAMF7-K562 ([1]; Table B-2, overnight culture): 7524 pg/mL
IFN-gamma, target cells U251 [10]: 46 pg/mL
IFN-gamma, target cells HepG2 [11]: 33 pg/mL
IFN-gamma, target cells COLO 205 [12]: 29 pg/mL
IFN-gamma, target cells TC71 [13]: 113 pg/mL
IFN-gamma, T cells only ([3]; Table B-2): 71 pg/mL
IFN-gamma, T cells 0 ng/ml ([3]; Table D, no target cells, soluble SLAMF7 0 ng/ml): 20 pg/mL
IFN-gamma, T cells 50 ng/ml ([3]; Table D, no target cells, soluble SLAMF7 50 ng/ml): 22 pg/mL
IFN-gamma, T cells 200 ng/ml ([3]; Table D, no target cells, soluble SLAMF7 200 ng/ml): 30 pg/mL
IFN-gamma, target cells Panc 10.05 [14]: 53 pg/mL
IFN-gamma, target cells SLAMF7-RPMI ([6]; Table B-1, overnight culture, ELISA on supernatant): 8123 pg/mL
IFN-gamma, target cells SLAMF7 RPMI 0 ng/ml [6, 16]: 3495 pg/mL
IFN-gamma, target cells SLAMF7 RPMI 50 ng/ml [6, 17]: 2.873 ng/mL
IFN-gamma, target cells CD319 RPMI 200 ng/ml [6, 18]: 3083 pg/mL
IFN-gamma, target cells 293T [15]: 38 pg/mL
IFN-gamma, target cells NGFR-K562 ([8]; Table B-2, SLAMF7-negative): 78 pg/mL
IFN-gamma, target cells NGFR K562 0 ng/ml [8, 16]: 191 pg/mL
IFN-gamma, target cells NGFR K562 50 ng/ml [8, 17]: 98 pg/mL
IFN-gamma, target cells NGFR K562 200 ng/ml [8, 18]: 83 pg/mL
